Reference: patent US20260209316A1 (US Dept. of Health and Human Services, published 2026)
Positions count from the first letter of the chain named.

B1: Fab generated from 203S (Fab, V domains shown)
VH: QVQLVQSGAEVKKPGSSVKVSCKASGGTFSSYAISWVRQAPGQGLEWLGRILPALGLANYAQKYQDRVKITADKSTSTAYMELSRLGSEDTAVYYCARDRWVGAARRGQYFDYWGQGTQVTVSS
VL: DIQMTQSPATLSASVGDRVTITCRASQSIGTWLAWYQQKPGKAPKLLIYDASSLESGVPPRFSGSGSETEFTLTISSLQPDDFATYYCHQYKSYSYTFGQGTKLEIK
notes: also called 203S Fab
B2: Fab generated from 382S (Fab, V domains shown)
VH: QVQLVQSGAEVKKPGSSVKVSCKASGGTFSNYGISWVRQAPGQGLEWMGRNIPIIGIANYAQKFQDRVTITADKSTSTVFMELRSLRYEDTAVYYCARDPLAARRGNWFDPWGQGTLVTVSS
VL: B1 VL with A9S, I29V, G30S, T31S, S53T, E55Q, P60S, E68G, H89Q, K92N
notes: also called 382S Fab
B3: Fab generated from 377S (Fab, V domains shown)
VH: QVQLVQSGAEVKKPGSSVKVSCKASGGTFSNYAINWVRQAPGQGLEWMGRTIPFLGLTNYAENFQARVTITADKSTGTSYMQLSSLRSEDTAVYFCAKAATSGWSPFDNWGQGTLVTVSS
VL: EIVLTQSPGTLSLSPGERATLSCRASQSISSSYFGWYQQKPGQAPRLLIYGASRRAAGIPDRFSCSGSGTDFTLTISRLEPEDFGVYYCQQYGSSPTFGQGTKVEIK
B4: Fab generated from 338S (Fab, V domains shown)
VH: EVQLVESGGGVVQPGRSLRLSCAASGFTFSQYGMHWVRQAPGKGLECVAVIWFDGSKKYYGDSVKGRFTISRDNSKNTLYLQMNSLRAEDTAVYFCARESLYYYDSGGHYYERGRIDYWGQGTLVTVSS
VL: DIQMTQSPSSLSASVGDRVTITCRASQDISNFLAWFQQKPGKAPKSLIYAASSLLSGVPSKFSGSGSGTDFTLTISSLQPEDFATYYCQQYNSYPPTFGQGTKLEIK
B5: Fab generated from 285S (Fab, V domains shown)
VH: QVQLVQSGAEVKKPGSSVKVSCKASGGTFSTYAITWVRQAPGQGLEWMGRIIPILRVANYAQKFQGRVTITADSSTSTAYMELSSLRSEDTAVYYCANLLAYCGGDCRSDYWGQGTLVTVSS
VL: EIVLTQSPGTLSLSPGERATLSCRASQSVKNSYLAWYHQKPGQAPRLLIYGASSRATGIPDRFSGSGSGTDFTLTISRLEPEDFAVYYCQQYGSSLWTFGQGTKVDVK
B6: Fab generated from 528S (Fab, V domains shown)
VH: EVQLAESGGGVVQPGRSLRLSCAASGFTFNSYGMHWVRQAPGKGLEWVAVIWDDGSKKYYADSVKGRFTISRDNSKNTLFLQMNSLRAEDTAVYYCARETIMFTFGEVIVSSRDNYYMDVWGKGTTVTVSS
VL: EIVLTQSPATLSLSPGERATLSCRASQSVSNYLAWYQQKPGQAPRLLIYDASTRAIGIPARFSGVGSGTDFTLTISSLEPEDFAVYYCQQRSNWPPLTFGGGTKVEIK
notes: also called 528S Fab
B7: Fab generated from 102S (Fab, V domains shown)
VH: EVQLVESGGGLVQPGGSLRLSCSASGFTFHSYDMNWARQAPGKGLEWVSEISSSGQSKNYADSVRGRFTISRDNAKNSLYLQINSLRSEDTAVYYCARVGFVAKFGSDFSITHGTYYLDYWGQGTLVTVSS
VL: B6 VL with E1Q, I2L, T53N, I56P, I58V, V65S, T72S, Q89L, L97W, G101Q
B8: Fab generated from 365S (Fab, V domains shown)
VH: EVQLVESGGGLVQPGGSLRLSCAASGLTFSAYEMNWVRQAPGKGLEWVSHITTSGSAIYYADSVKGRFTISRDNAKNSLHLQMNRLRADDTAVYFCARDSTIVQCSGTSCHVSTYSYMDVWGKGTTVTVSS
VL: EIVLTQSPATLSLSPGERATLSCRASQSVTTYLAWYQHKPGQAPRLLIYDASKRATGIPARFSGSGSGTDFTLTISSLEPEDFAVYHCQQRSSWPPITFGQGTRLEIK
notes: also called 365S Fab
B9: Fab generated from 315S (Fab, V domains shown)
VH: EVQLVESGGGVVQPGRSLRLSCAASGFTFKTYTMHWVRQAPGKGLEWVAVITDDGVNKKYADSVKGRFTISRDNSKNTLYLQMNSLRLEDTAVYYCARSVVVLAAYPLDYWGQGTMVTVSS
VL: DIQMTQSPSSLSASVGDRVTITCRASQTISTYLHWYQQRPGKAPKLLIYAASSLQSGVPSRVSGSGSGTDFTLTITSLQPEDFATYYCLQTYSLPLTFGGGTNVEIK
notes: also called 315S Fab
B10: Fab generated from 335S (Fab, V domains shown)
VH: EVQLVESGGGVVQPGRSLRLSCAASGFSFSNYAMHWVRQAPGKGLEWVAVTWYDGSSKYHADSVKGRFTISRDNSKNTLYLQMNSLRAEDTAVYYCARWGMGIVASPGNVLNYYYFMDVWGQGTTVIVSS
VL: SYELTQPPSVSVSPGQTARITCSGNPLPKKHTYWYQQKPGQAPVLMIYKDSERPSRIPERFSGSSSGTTVTLTISGVQAEDEADYYCQSADSTGIVVFGGGTKLTVL
notes: also called 335S Fab
B11: Fab generated from 578S (Fab, V domains shown)
VH: EVQLVESGGGVVQPGRSLRLSCAASGFTFSSYELHWVRQAPGKGLEWVAVISYDGSSKYYADSLKGRFTISRDNSKNTLSLQMNSLRAEDTAMYYCVRQSEAYCSDGRCDWRRALDIWGQGTMVTVSP
VL: DIQMTQSPSSLSASVGDRVTITCQASQDIKNYLNWYQQKPGKAPKLLIYDVSKLETGVPSRFSGSGSGTDFSFTISSLQPEDIATYYCQQYDNLPSYTFGQGTKLEIK
notes: also called 578S Fab
B12: Fab generated from 294S (Fab, V domains shown)
VH: QVQLQESGPGLVKPSQTLSLTCTVSGGSISSGGYHWSWIRQHPGKGLEWIGNIYYNGRTYYNPSLKSRVTISVDTSENEFSLKLSSVTAADTAVYYCARDRRRPRIGHDYGMDVWGQGTKVIVSS
VL: DIQMTQSPSSLSASVGDRVTISCRASQSISNFLNWYQQKPGQAPKLLIYTASNLQSGVPSRFSGSGSGTDFTLTISSLQPEDFATYYCQQIYNTGMYSFGQGTKLEIK
notes: also called 294S Fab
B13: Fab generated from 523S (Fab, V domains shown)
VH: QVQLVQSGAELKKPGASVKVSCKASGYTFSDHYVHWVRQAPGQGLEWMGRINPNSGGTNYAQRFLGRVTMTRDASISTAYLDLSSLRSDDTAVYYCARSSSSWSGHYYYYMDVWGKGTTVTVSS
VL: QSVLTQPPSVSAAPGQRVTISCSGSTSNIASNFVSWYQQLPGTAPKLLIYDNHKRPSGIPDRFSGSKSGTSATLGITGLQTGDEADYYCGTWDSSLSAGVFGGGTKVTVL
notes: also called 523S Fab
B14: Fab generated from 573S (Fab, V domains shown)
VH: EVQLVESGGGLVKPGGSLRLSCAASGFTFSSYTMNWVRQAPGKGLEWVSCIRSSSSDKYYADSVKGRFTISRDNTKNSLYLQMNSLRADDTAVYYCARDLGGANNRYYFDYGMDVWGQGTTVTVSS
VL: EIVMTQSPATLSVSPGGRATLSCRASQSVYTNLAWYQQKPGQAPRLLIYDASTRATGIPARFSGSGSGTEFTLTISSLQCEDFAVYYCQHYNNWPLYTFGQGTKLEIK
notes: also called 573S Fab
B15: Fab generated from 541S (Fab, V domains shown)
VH: QVQLVQSGAEVKKPGASVKVSCKASGYTFTNYAITWVRQAPGQGLEWMGWISAFNGQINYAQKFQGRVAMTTDTSTSTAYMELRSLRSDDTAVYYCARAPPMWFSGAKFDYWGQGTLVTVSS
VL: QSVLTQPPSVSGTPGQRVTISCSGSSSNIGSNTVNWYQQLPGTAPKLLIYSNDQRPSGVPDRFSGSKSGTSASLAISGLRSEDEADYYCAAWDETLRRVFGGGTRLTVL
notes: also called 541S Fab

What follows are binders tested against T1, full-length Sudan GP (GPFL) (Sudan virus (SUDV), UniProt Q7T9D9 33-650) (assay: BLI, Fab, pH 7.4).
T1 construct: also called Sudan GPFL; GP(S)FL
T1 sequence: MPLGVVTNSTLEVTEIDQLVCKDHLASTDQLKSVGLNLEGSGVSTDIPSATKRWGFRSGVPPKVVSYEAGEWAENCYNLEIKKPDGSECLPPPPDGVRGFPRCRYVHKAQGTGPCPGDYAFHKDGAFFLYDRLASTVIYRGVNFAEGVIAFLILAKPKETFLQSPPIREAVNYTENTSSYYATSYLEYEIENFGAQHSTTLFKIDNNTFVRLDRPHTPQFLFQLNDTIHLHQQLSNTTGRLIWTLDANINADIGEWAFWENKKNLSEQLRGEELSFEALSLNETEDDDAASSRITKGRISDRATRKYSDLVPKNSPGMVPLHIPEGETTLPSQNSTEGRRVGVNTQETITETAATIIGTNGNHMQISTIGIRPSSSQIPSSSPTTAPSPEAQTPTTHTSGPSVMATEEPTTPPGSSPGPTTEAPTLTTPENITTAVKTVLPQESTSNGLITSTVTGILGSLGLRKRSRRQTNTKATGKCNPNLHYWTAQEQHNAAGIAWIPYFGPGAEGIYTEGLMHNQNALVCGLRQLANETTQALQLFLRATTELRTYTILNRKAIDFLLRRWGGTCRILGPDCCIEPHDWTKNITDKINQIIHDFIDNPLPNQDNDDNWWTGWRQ

Binder | Kd [nM] | koff [s⁻¹] | kon [M⁻¹ s⁻¹]
B1 | 26.1 | 0.000376 | 14400
B2 | 26 | 0.000422 | 16200
B3 | 36.7 | 0.000631 | 17200
B4 | 27.4 | 0.000632 | 23100
B5 | 6.11 | 0.000258 | 42200
B6 | 9.11 | 0.000387 | 42500
B7 | 91.2 | 0.00504 | 55300
B8 | 102 | 0.00171 | 16800
B9 | 8.37 | 0.000303 | 36200
B10 | 5.6 | 0.000496 | 88500
B11 | 97.1 | 0.000404 | 4200

These binders were tested against T1, full-length Sudan GP (GPFL) (assay: BLI, Fab, pH 5.3).

Binder | Kd [nM] | koff [s⁻¹] | kon [M⁻¹ s⁻¹]
B1 | 118 | 0.00046 | 3880
B2 | 31.3 | 0.000452 | 14500
B3 | 63.7 | 0.000571 | 8970
B4 | 23.7 | 0.000418 | 17600
B5 | 18.2 | 0.000305 | 16800
B6 | 5.58 | 4.65e-05 | 8330
B8 | 57.7 | 0.00362 | 62800
B9 | 4.26 | 8.93e-05 | 21000
B10 | 12.6 | 0.000352 | 27800
B11 | 334 | 0.000695 | 2100

Biological target: T1, full-length Sudan GP (GPFL)
Assay: BLI, Fab, pH 7.4
Remark: another data set of the same source

Binder | Kd [nM] | koff [s⁻¹] | kon [M⁻¹ s⁻¹]
B12 | 4.3 | 0.00135 | 314000
B13 | 1.61 | 0.000148 | 91900
B14 | 24.1 | 0.000252 | 10500
B15 | 39.5 | 0.000482 | 12200

Biological target: T1, full-length Sudan GP (GPFL)
Assay: BLI, Fab, pH 5.3
Remark: another data set of the same source

Binder | Kd [nM] | koff [s⁻¹] | kon [M⁻¹ s⁻¹]
B12 | 2.18 | 0.000377 | 173000
B13 | 1.58 | 0.000103 | 65400
B14 | 9.27 | 0.000105 | 11300
B15 | 44.3 | 0.000322 | 7260
